{
  "source": "patent US20180071407A9",
  "about": "“SYSTEMS AND METHODS FOR INTRA-TARGET MICRODOSING (ITM)” (priority 2013, published 2018)",
  "origin": "cited, not measured here",
  "conditions": "known value used to choose sampling time points; cited from earlier work",
  "data": [
    {"substance": "insulin", "values": [
      {"measurement": "half-life of insulin", "result": "4 to 6", "unit": "min"}
    ]}
  ]
}
